Consider two substances from PMC11082164.

The assay concerns the target recombinant human full-length BIN1 isoform 8 (human).

With “recombinant ezrin T567D (from UniProt P15311 1-586) (natural protein)”, the relative membrane binding of Alexa488-ezrin-T567D on supported lipid bilayers with 5% PI(4,5)P2 in the presence of 0.1 µM BIN1 iso8, normalized to ezrin-T567D without BIN1 (confocal intensity) is 1.5 fold.

With “recombinant ezrin wild-type (from UniProt P15311 1-586) (natural protein)”, the relative membrane binding of Alexa488-ezrin on supported lipid bilayers with 5% PI(4,5)P2 in the presence of 0.1 µM BIN1 iso8, normalized to ezrin without BIN1 (confocal intensity) was determined as 2.5 fold.
